Laboratory results published in the supplement of paper PMC9170038.

Test system: MS2 coat protein
Experiment: apparent KD of MS2 coat protein; designed switch direction (-1 OFF switch, 1 ON switch): -1; higher = weaker reporter binding
Method in brief: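 Designed RNA switches with common flanks were made on Illumina chips by stalled E. coli RNA polymerase. Titration with SNAP-549-labelled MS2 coat protein doubled from 0.7 or 1.5 nM up to 3 µM. Apparent KD is each design's median over clusters after curve-fitting normalised fluorescence.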

[1] = Eterna round: R95, input ligand: FMN 200 uM
[2] = Eterna round: R95, input ligand: microRNA oligo, concentration not stated
[3] = Eterna round: R95, input ligand: none
[4] = input ligand: microRNA oligo, concentration not stated

Sequence	apparent KD of MS2 coat protein (input ligand: FMN 200 uM)	apparent KD of MS2 coat protein (input ligand: none)	apparent KD of MS2 coat protein [2]	other results
UCCCACCGAGGAUAUGACCAUCAGAACAUGAGGAUCACCCAUGUAUUUCUAUGUUCAGAGUCAGAAGGCGGUUUAU [Eternabot (L2) Solution 20] (Eterna round: R97, puzzle: Exclusion 5)	190 nM	72.4 nM	–	–
AAUUUAAUUAACAAGCUUUACAUGAGGAUCACCCAUGUGAUCAUGCUCGUCUUAGGUACAGGCUUCGGCCUGUACCA [Stov1/6-B1] (Eterna round: R97, puzzle: Sensor, turn-off variant 1)	49.7 nM	55.5 nM	–	–
GGUUGUUUUUUCCUUUCUUACAUGAGGAUCACCCAUGUUUCUUGUCGUGCUCGCGUUGCUCGUCUGUCUGUCUGUUG [salish99_TOv1_r3_074] (puzzle: Sensor v3, turn-off variant 1)	–	–	36.6 nM	apparent KD of MS2 coat protein [1]: 49.9 nM; apparent KD of MS2 coat protein [3]: 55.6 nM
AAUCGACAUGAGGAUCACCCAUGUUAGGAUAUGCGGAAUCGGUCAAUCAAUCGAUCAAGCAGAAGGGACGGGUU [Candy Rainbow] (puzzle: Exclusion 1)	–	–	27.4 nM	apparent KD of MS2 coat protein [1]: 29.1 nM; apparent KD of MS2 coat protein [3]: 34.2 nM
AAAUUAGCAAGUAGGUCCGACAUGAGGAUCACCCAUGUUAUCUGAAAUAACGCAGCAUGAUUGUGAGCUCGUCUUAG [Sensor-V1 #6] (Eterna round: R97, puzzle: Sensor, turn-off variant 1)	80.8 nM	105 nM	–	–
AGGUGGAAGCAGGAUAUGCUAGAAGUGUAGAAUGCAGAAGGGCUAACAUGAGGAUCACCCAUGUAAGAGGUGUA [JR_E6_Sub051] (puzzle: Exclusion 6)	–	–	200 nM	apparent KD of MS2 coat protein [1]: 383 nM; apparent KD of MS2 coat protein [3]: 236 nM
GCCAGGUGAUUCGGCCAUGACAUGAGGAUCACCCAUGUAACAAUCUAGCAAGCAAACAAGGCCGUCGUGUAGGUAUU [Rigeusarla] (Eterna round: R96, puzzle: Sensor v2, turn-off variant)	78 nM	76.7 nM	–	apparent KD of MS2 coat protein [4]: 61.1 nM
UUUAUGUCAGGAUAUGAGUCGUAGAACAAUAGUACUACGUCUCAGAAGGGACAUGAGGAUCACCCAUGUGCCUC [Fiskers Ex 4 Super Stable 44 mod 26] (puzzle: Exclusion 4)	–	–	35.7 nM	–
AUGUAACAUGAGGAUCACCCAUGUGAGGAUAUGCGAAUGAAUGAAUGAAUGAAUGUUAGCAGAAGGCACAAGUA [Default title] (Eterna round: R97, puzzle: Exclusion 1)	59.6 nM	44.3 nM	–	–
ACCAGCAUACGGAGAUCCAACAUGAGGAUCACCCAUGUCUGGAAAGCUUUUUGCUUGUCUUAUCCUCCUCUGUGUGC [Design #2] (Eterna round: R97, puzzle: Sensor, turn-off variant 1)	17.5 nM	16.6 nM	–	–
AAAUUAGCAAGUAGGUCCGACAUGAGGAUCACCCAUGUAAUCUAAAAUUACGCUGCACGAAAGUGCGCUCGUCUUAG [Sensor-V1 #12] (Eterna round: R97, puzzle: Sensor, turn-off variant 1)	439 nM	385 nM	–	–
GUCGGGCAAGGAUAUGUAGCACUCUACAUGAGGAUCACCCAUGUGAGCCUGCAUGGUGCGACAGAAGGUGCAAAAG [Enencear] (Eterna round: R97, puzzle: Exclusion 5)	330 nM	361 nM	–	–
GUCAUCAAACAUGGGAUAAACAUGAGGAUCACCCAUGUUAACAAGUUUUUUGCUCGUCUUAUAAUAAGUUUGAUGAC [Antenna 11 - Jieux - Sensor, turn-off variant 1] (Eterna round: R97, puzzle: Sensor, turn-off variant 1)	12.4 nM	13.5 nM	–	–
AAUAAGUGAGGAUAUGGAAUAAUAAAUAAAAUAAUAAAUAACCAGAAGGCACAUGAGGAUCACCCAUGUAAUAA [JMF's solution 3] (puzzle: Exclusion 4)	–	–	23.7 nM	apparent KD of MS2 coat protein [1]: 27.4 nM; apparent KD of MS2 coat protein [3]: 21.4 nM
CAGCGUGAAGGAUAUACAUGAGGAUCACCCAUGUGCAACUCUCCAACUCGGACUCCCUGUAGAAGGUCGGCUUU [Eternabot (L2) Solution 88] (Eterna round: R97, puzzle: Exclusion 3)	26.9 nM	28 nM	–	–
AGAUAGUGCAGAGGAUAUCGUAAUAGAAAGAAUCGAGAAGGCUGACAUGAGGAUCACCCAUGUGAUGUCUUGAGACUACAUGGU [Prohibition 34 - Jieux - Exclusion NG 1] (Eterna round: R96, puzzle: Exclusion NG 1)	460 nM	83.1 nM	–	apparent KD of MS2 coat protein [4]: 62.8 nM
AAAGAACAUGAGGAUCACCCAUGUGAGGAUAUGCGAAAACCGCUGACAAACCAGACGGGCAGAAGGCAUAUGGU [Birima] (puzzle: Exclusion 1)	–	–	56.2 nM	–

Sequence	apparent KD of MS2 coat protein (input ligand: FMN 200 uM)	apparent KD of MS2 coat protein (input ligand: none)	apparent KD of MS2 coat protein [2]	other results
GUCAGCUCGUGAGGAUAUACAUCACUGCUUCGGCAGUGUAUUAAGAUCACAUGAGGAUCACCCAUGUAGAAGGCACGAGCUGAU [ENG2/2-A2] (Eterna round: R96, puzzle: Exclusion NG 2)	1020 nM	39 nM	–	apparent KD of MS2 coat protein [4]: 27.6 nM
GUUUUCAGACGGAGAUCCUACAUGAGGAUCACCCAUGUCUCACUAGCUUUUUGCUCGUCUUAUCCUCCUCUGUUCUC [Elimod 28 - Jieux - Sensor, turn-off variant 1] (Eterna round: R97, puzzle: Sensor, turn-off variant 1)	336 nM	460 nM	–	–
CCGGAAUAGCAGGAUAUAGGAGUCGAUAGACACCUAGAAGGGCUGACAUGAGGAUCACCCAUGUGUCCUACCGG [Fiskers Ex 6 - 83] (puzzle: Exclusion 6)	–	–	71.5 nM	–
AGUCAAGAUGAGGAUAUCCGUGUAACAAACGCAGGAGAAGGCGUCACAUGAGGAUCACCCAUGUUGCCUCUAAG [Eternabot (L1) Solution 92] (Eterna round: R97, puzzle: Exclusion 6)	45.9 nM	58.1 nM	–	–
AACAGGUCAGGAUAUACAUGAGGAUCACCCAUGUAGACUUCUGGUCUACCGAGACCGUGUAGAAGGGACCUGAA [Exclusion 3 (MOD3 of #98 Marzena11)] (Eterna round: R97, puzzle: Exclusion 3)	104 nM	35.7 nM	–	–
UUUGUUUAUGUGAGGAUAUACUGUUUGUUUUGUUUGUAGAAGGUACAUGAGGAUCACCCAUGUUUUGUAUUUAU [JR_BME4_Sub034] (puzzle: Brourd's mod of Exclusion 4)	–	–	18.4 nM	–
CGUCUGUCAGGAUAUAGUUACAUAGACAUGAGGAUCACCCAUGUGACGUGGGACUAGUGACUAGAAGGGACGAACG [EX5 #71] (Eterna round: R97, puzzle: Exclusion 5)	58.7 nM	28.8 nM	–	–
UGGUGGAAGCAGGAUAUGCUAGAAGUGUAGAAUGCAGAAGGGCUAACAUGAGGAUCACCCAUGUAAGAGGUGUU [JR_E6_Sub052] (puzzle: Exclusion 6)	–	–	296 nM	–
GGUACUAACACGAGAGUGUUAGUACUAUAAGCUUGUGUUACAUGAGGAUCACCCAUGUCCUCAUAAGCUCGUCUUGU [Mat - Sensor v3 - Turn-off var 2 - D88] (puzzle: Sensor v3, turn-off variant 2)	–	–	54.8 nM	apparent KD of MS2 coat protein [1]: 48.2 nM; apparent KD of MS2 coat protein [3]: 46.8 nM
GAUCCACAUGAGGAUCACCCAUGUCAGGAUAUGAUACUAUGUACUUCGGUACAUAGUAUCAGAAGGGACAGAUC [Ex1-3: 2] (puzzle: Exclusion 1)	–	–	162 nM	–
AGCUGACGAGGAUAUACAUGAGGAUCACCCAUGUAAGAUCAGCGACGAUAGUCGCAAUGUAGAAGGCGUCAGCU [E3/10-A2] (Eterna round: R97, puzzle: Exclusion 3)	299 nM	30.1 nM	–	–
AAUUUACAUGAGGAUCACCCAUGUCAGGAUAUGGUUUUAUUUUUUUUUUUUUUUGAUUCCAGAAGGGACAGUUA (puzzle: Exclusion 1)	–	–	22.7 nM	–
UUGUUACAUGAGGAUCACCCAUGUGAGGAUAUGAGUCAGUCACGGUGACGUGGCUGACUCAGAAGGCACAAAGG [Mat - Exclusion 1 - JL Mod - D40] (Eterna round: R97, puzzle: Exclusion 1)	310 nM	120 nM	–	–
CGUACUAACACGAAAGUGUUAGUACAAUAAGCUUGUGAAACAUGAGGAUCACCCAUGUCCUCAUAAGCUCGUCUUAA [salish99_TOv2_r3_006] (puzzle: Sensor v3, turn-off variant 2)	–	–	268 nM	apparent KD of MS2 coat protein [1]: 14.1 nM; apparent KD of MS2 coat protein [3]: 12.1 nM
CGGCGGGUCGCGCUGGUCCACAUGAGGAUCACCCAUGUUCCGGCACGCUGAAGGCACACGCUUUUUGCUCGUCUUAU [Sensor V1 S1] (Eterna round: R97, puzzle: Sensor, turn-off variant 1)	32.2 nM	35 nM	–	–
UGAUCACAUGAGGAUCACCCAUGUCAGGAUAUCGUCACUGGAGCCUCGGCUCCAGUGACGAGAAGGGACAUAAU [E1/3-A2] (Eterna round: R97, puzzle: Exclusion 1)	137 nM	253 nM	–	–
AUGAGCAGACGGAGAUCCAACAUGAGGAUCACCCAUGUCUCAUAAGCUUUUUGUUCAUCUUAUUGUACCUUGGUGCU [Mat - Sensor v3 - turn-off var 1 - JL Mod - D22] (puzzle: Sensor v3, turn-off variant 1)	–	–	12.6 nM	apparent KD of MS2 coat protein [1]: 53.7 nM; apparent KD of MS2 coat protein [3]: 67.7 nM
